Data as given in paper PMC10567733, “C9orf72-catalyzed GTP loading of Rab39A enables HOPS-mediated membrane tethering and fusion in mammalian autophagy” (Nature Communications, 2023).
Each block holds one binder with its values, some of them ahead of it.

Tests used:
VPS41-Flag = molecular target: T1, VPS41-Flag (human, UniProt P49754 1-854); assay: pull-down; Glutathione Sepharose beads bound with GST, GST-Rab39A or GST-Rab39B, incubated with the purified protein for one hour, washed, boiled, immunoblot; conditions: both partners purified
T1 construct: VPS41, human, cloned from human cDNA (293T cells); also called V41; not shown: Flag, C-terminal, kept
T1 sequence (looked up): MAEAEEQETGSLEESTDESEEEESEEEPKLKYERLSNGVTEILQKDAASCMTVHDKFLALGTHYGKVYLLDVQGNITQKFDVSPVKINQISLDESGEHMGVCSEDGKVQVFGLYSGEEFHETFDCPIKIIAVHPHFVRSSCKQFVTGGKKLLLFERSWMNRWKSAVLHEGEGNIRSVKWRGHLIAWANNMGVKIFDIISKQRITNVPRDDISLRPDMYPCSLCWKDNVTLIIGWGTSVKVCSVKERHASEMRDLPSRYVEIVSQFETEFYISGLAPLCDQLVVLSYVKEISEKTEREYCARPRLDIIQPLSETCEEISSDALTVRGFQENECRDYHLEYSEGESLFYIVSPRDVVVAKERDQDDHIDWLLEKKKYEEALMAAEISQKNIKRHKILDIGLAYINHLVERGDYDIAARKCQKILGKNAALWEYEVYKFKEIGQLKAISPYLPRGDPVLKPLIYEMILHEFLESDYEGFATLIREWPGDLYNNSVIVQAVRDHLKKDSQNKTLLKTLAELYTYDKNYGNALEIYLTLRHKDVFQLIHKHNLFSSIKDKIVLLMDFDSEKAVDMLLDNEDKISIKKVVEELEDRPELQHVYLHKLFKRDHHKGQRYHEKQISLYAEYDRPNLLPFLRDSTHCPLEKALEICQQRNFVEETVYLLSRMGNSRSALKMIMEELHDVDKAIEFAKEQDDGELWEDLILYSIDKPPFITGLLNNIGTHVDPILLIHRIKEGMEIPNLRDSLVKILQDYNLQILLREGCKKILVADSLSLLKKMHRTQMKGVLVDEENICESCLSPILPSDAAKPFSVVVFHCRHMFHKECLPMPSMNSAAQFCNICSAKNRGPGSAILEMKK

Myc-C9orf72 = molecular target: T2, Myc-C9orf72 (human, UniProt Q96LT7 1-481); assay: as above; conditions: both partners purified
T2 construct: C9orf72, human, cloned from human cDNA; source: E. coli BL21 (DE3), purified (Glutathione Sepharose, eluted by TEV cleavage or GSH); not shown: Myc, N-terminal, kept
T2 sequence (looked up): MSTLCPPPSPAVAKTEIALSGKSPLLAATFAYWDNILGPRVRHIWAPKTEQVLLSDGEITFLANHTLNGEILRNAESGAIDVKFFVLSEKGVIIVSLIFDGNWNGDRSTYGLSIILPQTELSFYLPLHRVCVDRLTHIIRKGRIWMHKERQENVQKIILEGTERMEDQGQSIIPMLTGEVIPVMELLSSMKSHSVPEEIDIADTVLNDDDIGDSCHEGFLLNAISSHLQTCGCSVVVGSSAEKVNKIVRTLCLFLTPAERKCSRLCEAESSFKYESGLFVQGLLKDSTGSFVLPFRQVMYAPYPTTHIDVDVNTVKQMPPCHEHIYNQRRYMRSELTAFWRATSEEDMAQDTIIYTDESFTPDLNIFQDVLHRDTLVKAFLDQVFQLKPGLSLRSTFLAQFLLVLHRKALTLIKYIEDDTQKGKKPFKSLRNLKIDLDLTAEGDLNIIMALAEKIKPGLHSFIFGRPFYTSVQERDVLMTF

binding result (VPS41-Flag): binds
binding result (Myc-C9orf72): binds
B1: GST-Rab39B (natural protein, human, UniProt Q96DA2 1-213, looked up)
chain: MEAIWLYQFRLIVIGDSTVGKSCLIRRFTEGRFAQVSDPTVGVDFFSRLVEIEPGKRIKLQIWDTAGQERFRSITRAYYRNSVGGLLLFDITNRRSFQNVHEWLEETKVHVQPYQIVFVLVGHKCDLDTQRQVTRHEAEKLAAAYGMKYIETSARDAINVEKAFTDLTRDIYELVKRGEITIQEGWEGVKSGFVPNVVHSSEEVVKSERRCLC
notes: Rab39B, human, cloned from human cDNA; unprenylated; also called GST-R39B; purified Rab39B; source: E. coli BL21 (DE3), purified (Glutathione Sepharose); not shown: GST, N-terminal, kept

binding result (VPS41-Flag): binds
binding result (Myc-C9orf72): binds
B2: GST-Rab39A (natural protein, human, UniProt Q14964 1-217, looked up)
chain: METIWIYQFRLIVIGDSTVGKSCLLHRFTQGRFPGLRSPACDPTVGVDFFSRLLEIEPGKRIKLQLWDTAGQERFRSITRSYYRNSVGGFLVFDITNRRSFEHVKDWLEEAKMYVQPFRIVFLLVGHKCDLASQRQVTREEAEKLSADCGMKYIETSAKDATNVEESFTILTRDIYELIKKGEICIQDGWEGVKSGFVPNTVHSSEEAVKPRKECFC
notes: Rab39A, human, cloned from human cDNA; unprenylated; also called GST-R39A; purified Rab39A; source: E. coli BL21 (DE3), purified (Glutathione Sepharose); not shown: GST, N-terminal, kept
